{
  "source": "patent US9695460B2",
  "about": "“Method of analyzing L-tryptophan in biological samples, and kit used therein” (Toyama Prefecture, priority 2011, dated 2017)",
  "key": {"[1]": {"tested_on": "VioA, L-tryptophan oxidase derived from Chromobacterium violaceum, SEQ ID NO: 1", "conditions": "reported in Balibar and Walsh (2006) Biochemistry 45, 15444-15457; cited from earlier work"}, "[2]": {"tested_on": "L-amino acid oxidase derived from Coprinus sp.", "conditions": "Japanese Un-examined patent publication No. 2001-069974, read-out: Km value for L-tryptophan; cited from earlier work"}, "[3]": {"substrate": "N[C@@H](Cc1c[nH]c2ccccc12)C(=O)O", "assay": "Km value of L-tryptophan oxidase StaO for L-tryptophan (peroxidase-coupled, absorbance at 505 nm)", "type": "biochemical, Streptomyces sp. TA-A0724", "conditions": "other: StaO, 20 mM tris-hydrochloric acid buffer pH 8.0, 30° C., 0-500 μM L-tryptophan, 0.5 mU/mL enzyme", "description": "StaO is an enzyme that has the amino acid sequence given in SEQ ID NO: 2 in the Sequence Listing, that has oxidase activity of acting on L-tryptophan in the presence of oxygen and water to produce hydrogen peroxide and ammonia, that has oxidase activity on L-phenylalanine falling within a range of 0 to 3% of the oxidase activity on L-tryptophan, and that has no oxidase activity on the protein-constituting amino acids other than L-tryptophan and L-phenylalanine. StaO can be derived from Streptomyces sp. TA-A0724. The gene encoding StaO was discovered in the biosynthesis gene cluster of staurosporine, an antibiotic produced by the above bacterium (Onaka, H., Taniguchi, S., Igarashi, Y., and Furumai, T. (2002) J Antibiot 55, 1063-1071). This gene has no significant homology with the VioA gene, nor is there any example of biological analysis of the genetic product. Thus, the properties of the genetic product were unknown. […]\nThe supernatant of each solution of the ruptured expression strains was loaded onto an Ni Sepharose column made by GE Healthcare, washed with 20 mM Tris-HCl and 50 mM imidazole (pH 8.0), and then eluted with a solution of 20 mM Tris-HCl and 500 mM imidazole (pH 8.0) to purify and recover the target enzyme. The base sequences of these enzymes were determined, and are shown as SEQ ID NOS: 3 and 4. […]"}, "[4]": {"assay": "Substrate specificity for amino acids of L-tryptophan oxidase (peroxidase-coupled, absorbance at 505 nm)", "type": "biochemical", "protocol": "A reaction solution of 20 mM tris-hydrochloric acid buffer (pH 8.0), 5 mM L-tryptophan, 1 mM phenol, 1 mM 4-aminoantipyrine, 15 U/mL horseradish-derived peroxidase, and some quantity of L-tryptophan oxidase enzyme solution was prepared and the change in absorbance at 505 nm was measured at 30° C. The mol absorbance coefficient of quinoneimine dye was considered to be 6.4 mM^−1·cm^−1. Activity generating 1 μmol of hydrogen peroxide per minute was defined as 1 U. The detection limit of this method was 0.5%.\nReaction solutions each containing 20 mM of tris-hydrochloric acid buffer (pH 8.0), 1 mM of phenol, 1 mM of 4-aminoantipyrine, 15 U/mL of horseradish-derived peroxidase, 0.2 to 20 mU/mL of L-tryptophan oxidase, and 0.5 mM of an amino acid (one of the 20 protein-constituting amino acids) were prepared and the change in absorbance at 505 nm was measured at 30° C. The relative activity for each amino acid was calculated from the measurement values obtained, yielding the results given in Table 1. The detection limit of this method was 0.5%."}, "[5]": {"assay": "Dependence on reaction temperature", "type": "biochemical", "protocol": "StaO and VioA activity measurement was conducted at reaction temperatures of 20, 30, 40, 50, and 60° C. An activity measurement reaction solution of 20 mM of tris-hydrochloric acid buffer (pH 8.0), 1 mM of L-tryptophan, 1 mM of phenol, 1 mM of 4-aminoantipyrine, 15 U/mL of horseradish-derived peroxidase, and L-tryptophan oxidase enzyme solution was employed. Everything in the above reaction solution but the peroxidase and L-tryptophan oxidase enzyme solution was admixed, and 10 minutes of preincubation was conducted at various temperatures. While maintaining the temperature of the reaction solution, the peroxidase and the L-tryptophan oxidase enzyme solution were added and the reaction was begun. The change in absorbance at 505 nm was rapidly measured. […] The effect of deactivation at high temperature became marked in StaO at 60° C. and in VioA at 50° C. and above, making it difficult to accurately measure the activity."}, "[6]": {"assay": "Thermal stability (residual activity after 1 hour heat treatment)", "type": "physicochemical", "conditions": "activity prior to heat treatment as 100, StaO in 20% glycerol, VioA in 10% glycerol", "protocol": "The activity was measured after heat treating StaO enzyme solutions containing 20% glycerol and VioA enzyme solutions containing 10% glycerol for 1 hour at 30, 40, 50, 60, and 70° C. […] At heat treatments of 50° C. and above, the residual activity dropped below the detection limit."}, "[7]": {"assay": "Stability on storage at 4° C. at various glycerol concentrations", "type": "physicochemical", "protocol": "Glycerol was added to final concentrations of 0 to 50% (v/v) to StaO and VioA purified enzyme solutions. The enzymatic solutions were stored at 4° C., sampled over time, and the activity was measured. The change over time in the residual activity of StaO and VioA stored in the presence of various glycerol concentrations are given in FIGS. 7 and 8."}, "[8]": {"conditions": "0.5 mM amino acid, pH 8.0, 30° C., No activity = at or below detection limit 0.5%"}, "[9]": {"conditions": "activity at 20° C. as 100, 1 mM L-tryptophan, pH 8.0"}, "[10]": {"conditions": "activity at 20° C. as 100, * = estimated value when greatly impacted by thermal deactivation"}},
  "data": [
    {"molecule": "N[C@@H](Cc1c[nH]c2ccccc12)C(=O)O", "note": "[L-tryptophan]", "values": [
      {"measurement": "Km", "setting": "[1]", "value": 30, "unit": "µM"},
      {"measurement": "Km", "setting": "[2]", "value": 650, "unit": "µM"}
    ]},
    {"molecule": "StaO, L-tryptophan oxidase derived from Streptomyces sp. TA-A0724, SEQ ID NO: 2 (Streptomyces sp. TP-A0274) (protein, peroxidase-coupled assay) MTAPLQDSDGPDDAIGGPKQVTVIGAGIAGLVTAYELERLGHHVQIIEGSDDIGGRIHTHRFSGAGGPGPFAEMGAMRIPAGHRLTMHYIAELGLQNQVREFRTLFSDDAAYLPSSAGYLRVREAHDTLVDEFATGLPSAHYRQDTLLFGAWLDASIRAIAPRQFYDGLHNDIGVELLNLVDDIDLTPYRCGTARNRIDLHALFADHPRVRASCPPRLERFLDDVLDETSSSIVRLKDGMDELPRRLASRIRGKISLGQEVTGIDVHDDTVTLTVRQGLRTVTRTCDYVVCTIPFTVLRTLRLTGFDQDKLDIVHETKYWPATKIAFHCREPFWEKDGISGGASFTGGHVRQTYYPPAEGDPALGAVLLASYTIGPDAEALARMDEAERDALVAKELSVMHPELRRPGMVLAVAGRDWGARRWSRGAATVRWGQEAALREAERRECARPQKGLFFAGEHCSSKPAWIEGAIESAIDAAHEIEWYEPRASRVFAASRLSRSDRSA", "values": [
      {"measurement": "Km", "setting": "[3]", "value": 19, "unit": "μM μM"}
    ]},
    {"molecule": "StaO: L-tryptophan oxidase with the amino acid sequence of SEQ ID NO: 2, derived from Streptomyces sp. TA-A0724, His-tagged, expressed in E. coli (protein, His tag; Streptomyces sp. TP-A0274, TA-A0724, His-tagged, expressed in E. coli) MTAPLQDSDGPDDAIGGPKQVTVIGAGIAGLVTAYELERLGHHVQIIEGSDDIGGRIHTHRFSGAGGPGPFAEMGAMRIPAGHRLTMHYIAELGLQNQVREFRTLFSDDAAYLPSSAGYLRVREAHDTLVDEFATGLPSAHYRQDTLLFGAWLDASIRAIAPRQFYDGLHNDIGVELLNLVDDIDLTPYRCGTARNRIDLHALFADHPRVRASCPPRLERFLDDVLDETSSSIVRLKDGMDELPRRLASRIRGKISLGQEVTGIDVHDDTVTLTVRQGLRTVTRTCDYVVCTIPFTVLRTLRLTGFDQDKLDIVHETKYWPATKIAFHCREPFWEKDGISGGASFTGGHVRQTYYPPAEGDPALGAVLLASYTIGPDAEALARMDEAERDALVAKELSVMHPELRRPGMVLAVAGRDWGARRWSRGAATVRWGQEAALREAERRECARPQKGLFFAGEHCSSKPAWIEGAIESAIDAAHEIEWYEPRASRVFAASRLSRSDRSA", "values": [
      {"measurement": "Relative activity, L-tryptophan", "setting": "[4]; 0.5 mM amino acid, pH 8.0, 30° C., L-tryptophan = 100%", "value": 100, "unit": "%"},
      {"measurement": "Relative activity, L-tyrosine", "setting": "[4]; [8]", "value": "No activity"},
      {"measurement": "Relative activity, other amino acids (17 listed in the footnote)", "setting": "[4]; [8]", "value": "No activity"},
      {"measurement": "Reactivity to amino acids other than L-tryptophan", "setting": "[4]; relative activity below the detection limit (0.5%)", "value": "did not exhibit reactivity"},
      {"measurement": "Relative activity at reaction temperature 20° C.", "setting": "[5]; [9]", "value": 100},
      {"measurement": "Relative activity at reaction temperature 30° C.", "setting": "[5]; [9]", "value": 156},
      {"measurement": "Relative activity at reaction temperature 40° C.", "setting": "[5]; [9]", "value": 268},
      {"measurement": "Relative activity at reaction temperature 50° C.", "setting": "[5]; [10]", "value": 427},
      {"measurement": "Relative activity at reaction temperature 60° C.", "setting": "[5]; [10]", "value": "480*"},
      {"measurement": "Reaction temperature at which the effect of deactivation became marked", "setting": "[5]; activity measurement at 20-60° C.", "value": 60, "unit": "°C"},
      {"measurement": "Relative (residual) activity following heat treatment at 30° C.", "setting": "[6]", "value": 73},
      {"measurement": "Relative (residual) activity following heat treatment at 40° C.", "setting": "[6]", "value": 1},
      {"measurement": "Relative (residual) activity following heat treatment at ≧50° C.", "setting": "[6]", "value": "<1"},
      {"measurement": "Stability of enzyme solution on storage", "setting": "[7]; 30% or more of glycerol added", "value": "high stability"},
      {"measurement": "Stability of enzyme solution on storage", "setting": "[7]; buffer only, no glycerol", "value": "unstable"}
    ]}
  ]
}
